Laboratory results taken from patent publication US20240368233A1 (University of Washington, published 2024).

Assays:
DFA0 = biological target: T1, DFA0; test: SEC of mixed components; trimer listed in Table 6
T1 construct: Bivalent connector
T1 chain: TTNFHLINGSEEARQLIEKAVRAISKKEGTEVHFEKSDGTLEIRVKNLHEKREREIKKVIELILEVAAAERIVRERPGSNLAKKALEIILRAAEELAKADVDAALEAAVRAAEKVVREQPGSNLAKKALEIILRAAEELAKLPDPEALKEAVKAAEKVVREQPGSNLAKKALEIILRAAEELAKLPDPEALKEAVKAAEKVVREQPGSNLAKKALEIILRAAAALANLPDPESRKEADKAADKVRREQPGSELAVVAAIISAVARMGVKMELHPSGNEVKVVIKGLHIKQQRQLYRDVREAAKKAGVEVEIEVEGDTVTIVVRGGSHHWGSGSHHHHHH
Method: (§1) Complexes and individual components were diluted in 20 mM Tris pH 8.0, 100 mM NaCl. After o/n equilibration of the mixtures at room temperature or 4 degrees C., 500 ul of sample was injected onto a Superdex™ 200 10/300 increase GL (dimers, linear assemblies) or Superose™ 6 increase 10/300 GL (symmetric assemblies) (all columns from GE healthcare) using the absorbance at 230 nm or 473 nm (for GFP tagged components) as read-out. Dimers were mixed at monomer concentrations of 5 μM or higher. Trimer and ABCD tetramer mixtures contained 5 μM of the bivalent connector, and 7.5 μM of each terminal cap (lower absolute concentrations with the same ratios were used for some trimers). ABCA tetramer mixtures contained 5 μM per bivalent connector and 15 μM terminal cap. The hexamer mixture contained 3 μM of components C and D, 3.6 μM of B and E, and 4.4 μM of A and F. The branched assembly shown in FIG. 4A contained 2.8 μM of the trivalent connector and 4 μM of each cap. For the exchange experiment shown in FIG. 5A, the ABC trimer was preincubated at concentrations of 6 μM B and 9 μM each of A and C. C′ was then added to reach a final concentration of 2 μM B, 3 μM each of A and C, and 6 μM C′.

DF275A-1 = biological target: T2, DF275A-1; test: SEC of mixed components; trimer listed in Table 6
T2 construct: Bivalent connector
T2 chain: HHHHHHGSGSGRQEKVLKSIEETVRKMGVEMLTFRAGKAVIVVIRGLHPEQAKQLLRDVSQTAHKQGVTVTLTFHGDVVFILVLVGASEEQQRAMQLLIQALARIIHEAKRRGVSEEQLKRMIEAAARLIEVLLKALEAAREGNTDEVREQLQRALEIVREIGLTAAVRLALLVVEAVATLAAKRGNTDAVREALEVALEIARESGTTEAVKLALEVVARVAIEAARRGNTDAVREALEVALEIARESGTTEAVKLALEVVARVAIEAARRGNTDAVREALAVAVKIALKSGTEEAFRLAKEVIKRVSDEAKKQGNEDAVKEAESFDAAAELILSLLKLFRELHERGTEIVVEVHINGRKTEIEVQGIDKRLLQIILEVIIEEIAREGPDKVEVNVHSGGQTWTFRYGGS
Method: as §1

101B62 = biological target: T3, 101B62; test: SEC of mixed components; linear tetramer listed in Table 6, neighbours in the chain
T3 construct: also called LHD101B62
T3 chain: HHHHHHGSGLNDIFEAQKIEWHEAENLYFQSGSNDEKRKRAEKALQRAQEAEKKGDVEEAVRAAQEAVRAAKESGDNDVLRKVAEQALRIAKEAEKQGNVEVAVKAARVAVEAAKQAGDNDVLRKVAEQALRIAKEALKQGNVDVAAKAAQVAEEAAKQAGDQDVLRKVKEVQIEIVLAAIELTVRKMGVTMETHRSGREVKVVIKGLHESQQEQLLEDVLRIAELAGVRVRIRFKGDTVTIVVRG
Method: as §1

TF10 = biological target: T4, TF10; test: SEC (A230) of A---, -BCD and ABCD and negative-stain EM; components named in the legend of FIG. 17A, which paragraph 104 ties to FIG. 4A
T4 construct: Trivalent connector
T4 chain: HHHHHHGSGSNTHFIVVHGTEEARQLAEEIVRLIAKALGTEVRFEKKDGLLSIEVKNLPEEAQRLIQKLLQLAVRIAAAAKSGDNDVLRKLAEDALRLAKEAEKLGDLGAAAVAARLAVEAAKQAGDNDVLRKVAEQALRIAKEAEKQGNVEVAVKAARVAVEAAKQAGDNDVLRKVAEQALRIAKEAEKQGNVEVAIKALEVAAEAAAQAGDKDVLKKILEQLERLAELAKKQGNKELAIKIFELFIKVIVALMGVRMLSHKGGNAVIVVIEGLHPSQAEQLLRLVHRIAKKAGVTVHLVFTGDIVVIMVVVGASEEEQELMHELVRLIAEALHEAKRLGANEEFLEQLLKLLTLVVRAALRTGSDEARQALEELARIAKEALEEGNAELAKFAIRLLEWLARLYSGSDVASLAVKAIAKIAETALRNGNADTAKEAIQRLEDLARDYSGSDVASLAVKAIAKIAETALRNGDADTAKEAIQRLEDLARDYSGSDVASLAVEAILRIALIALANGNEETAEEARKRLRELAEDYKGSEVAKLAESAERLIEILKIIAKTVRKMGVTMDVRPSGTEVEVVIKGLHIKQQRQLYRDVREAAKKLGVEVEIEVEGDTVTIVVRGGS
Method: as §1
SEC peak fractions were concentrated prior to negative stain EM screening. Samples were then immediately diluted 5 to 150 times in TBS buffer (25 mM Tris pH 8.0, 25 mM NaCl) depending on sample concentration. A final volume of 5 μL was applied to negatively glow discharged, carbon-coated 400-mesh copper grids (01844-F, TedPella, Inc.), then washed with Milli-Q™ Water and stained using 0.75% uranyl formate as previously described (53). Air-dried grids were imaged on a FEI Talos L120C TEM (FEI Thermo Scientific, Hillsboro, OR) equipped with a 4K×4K Gatan OneView™ camera at a magnification of 57,000× and pixel size of 2.51. Micrographs were imported into CisTEM software or cryoSPARC™ software and a circular blob picker was used to select particles which were then subjected to 2D classification. […]

DFX = biological target: T5, DFX; test: negative-stain EM of the heterotrimer; components named in the legend
T5 construct: Bivalent connector
T5 chain: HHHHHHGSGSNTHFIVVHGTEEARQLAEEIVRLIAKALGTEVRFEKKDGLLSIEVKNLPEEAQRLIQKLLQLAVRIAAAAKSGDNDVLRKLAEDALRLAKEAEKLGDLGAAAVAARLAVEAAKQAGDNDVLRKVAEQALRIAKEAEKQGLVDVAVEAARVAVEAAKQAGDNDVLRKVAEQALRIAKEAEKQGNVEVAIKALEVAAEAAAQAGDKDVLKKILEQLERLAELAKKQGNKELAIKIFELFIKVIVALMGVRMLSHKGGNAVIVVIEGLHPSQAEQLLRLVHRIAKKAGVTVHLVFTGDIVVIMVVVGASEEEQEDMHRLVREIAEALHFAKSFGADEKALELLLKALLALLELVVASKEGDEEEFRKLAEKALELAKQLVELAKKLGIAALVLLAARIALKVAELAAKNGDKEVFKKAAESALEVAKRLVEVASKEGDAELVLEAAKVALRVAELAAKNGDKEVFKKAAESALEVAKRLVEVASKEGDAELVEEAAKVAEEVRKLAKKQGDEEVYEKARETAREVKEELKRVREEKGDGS
Method: SEC peak fractions were concentrated prior to negative stain EM screening. Samples were then immediately diluted 5 to 150 times in TBS buffer (25 mM Tris pH 8.0, 25 mM NaCl) depending on sample concentration. A final volume of 5 μL was applied to negatively glow discharged, carbon-coated 400-mesh copper grids (01844-F, TedPella, Inc.), then washed with Milli-Q™ Water and stained using 0.75% uranyl formate as previously described (53). Air-dried grids were imaged on a FEI Talos L120C TEM (FEI Thermo Scientific, Hillsboro, OR) equipped with a 4K×4K Gatan OneView™ camera at a magnification of 57,000× and pixel size of 2.51. Micrographs were imported into CisTEM software or cryoSPARC™ software and a circular blob picker was used to select particles which were then subjected to 2D classification. Ab initio reconstruction and homogeneous refinement in Cn symmetry were used to generate 3D electron density maps (54, 55).

[1] = biological target: the molecule itself; test: SEC titration of the protomer alone at several injection concentrations (Superdex 200, normalised A230); self-association
LHD274 B62 = biological target: T6, LHD274 B62; test: SEC binding assay (Superdex 200, normalised A230) of A, B and the mixture AB
T6 construct: also called LHD274 B DHR62 C
T6 single chain, LHD274 chain B fused to DHR62: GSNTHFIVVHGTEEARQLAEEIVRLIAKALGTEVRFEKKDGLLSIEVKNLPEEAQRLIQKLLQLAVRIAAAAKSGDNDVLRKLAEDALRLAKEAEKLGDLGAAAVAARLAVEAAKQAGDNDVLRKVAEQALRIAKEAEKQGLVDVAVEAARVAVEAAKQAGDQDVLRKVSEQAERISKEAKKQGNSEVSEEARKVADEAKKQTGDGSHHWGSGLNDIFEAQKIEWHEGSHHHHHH
Method: as §1

274B53 = biological target: T7, 274B53; test: as above
T7 construct: also called LHD274B DHR53 stop
T7 chain: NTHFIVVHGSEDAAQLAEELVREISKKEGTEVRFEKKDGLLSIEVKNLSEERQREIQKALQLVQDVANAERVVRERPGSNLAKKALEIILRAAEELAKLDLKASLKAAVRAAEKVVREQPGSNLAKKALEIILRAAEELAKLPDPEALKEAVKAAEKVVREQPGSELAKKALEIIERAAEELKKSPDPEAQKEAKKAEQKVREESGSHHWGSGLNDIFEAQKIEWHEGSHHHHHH
Method: as §1

B1: 101B82 (designed binder)
chain: HHHHHHGSGLNDIFEAQKIEWHEAENLYFQSGSDEEVQEAVERAEELREEAEELIKKARKTGDAELLRKALEALEEAVRAVEEAIKRNPDNDEAVETAVRLARELKKVAEELQERAKKTGDAELLKLALRALEVAVRAVELAIKSNPDNDEAVETAVRLARELAKVAEELIERAKKTGDKELLKLAKRALEVAMRAVSLALKSNPDNEEARRVAAELVLLVIRAAVIEMGVTMEEHRSGNRVKVVIKGLHESQQEQLLEDVLRAAEIAGVRVRIRFKGDTVTIVVEG
B1: binds (DFA0).

B2: DF206 (designed binder)
chain: NTHFIVVHGTEEARQLAEEIVRLIAEALGTEVRFEKKDGLLSIEVKNLPEEAQRLIQKLLQLAVRIAAAAESGDNDQLRELAEDALRLAEEAEKLGDLGAAAVAARLAVEAAKQAGDNDVLREVAEQALEIAKEAEKQGLVDVAVEAARVAVEAAKQAGDNDVLRKVAEQALRIAKEAEKQGNVEVAVKAARVAVEAAKQAGDNDVLRKVAEQALRIAKEAEKQGNVEVAALALVVAVNAAQAAGDQDLLRKIAEQAERLAKLAEKQGRRDVALLASIIALVAKMGVPMEVHPSGNEVKVVIKGLHKSQQEQLLKEVLKAANKLGVNVHISFRGDTVTIRVRGGGSHHWGSGSHHHHHH
notes: Bivalent connector
B2: binds (DF275A-1).

B3: 206B62-2 (designed binder)
chain: HHHHHHGSGLNDIFEAQKIEWHEAENLYFQSGSNDEKRKRAEKALQRAQEAEKKGDVEEAVRAAQEAVRAAKESGDNDVLRKVAEQALRIAKEAEKQGNVEVAVKAARVAVEAAKQAGDNDVLRKVAEQALRIAKEAEKQGNVPVAVKALLVALNAAVAAGDQDVLRKISEQAERARKLAEKQGDKLLAFVLALISLVAQMGVPMEIHPSGNEVKVVIKGLHKSQQEQLLKLVLKLANKLGVNVHISFRGDTVTIRVRGGS
B3: binds (DF275A-1).

B4: DFB0 (designed binder)
chain: NTHFIVVHGSEDAAQLAEELVREISKKEGTEVRFEKKDGLLSIEVKNLSEERQREIQKALQLVQDVANAERVVRERPGSNLAKKALEIILRAAEELAKLDLKASLKAAVRAAEKVVREQPGSNLAKKALEIILRAAEELAKLPDPEALKEAVKAAEKVVREQPGSNLAKKALEIILRAAEELAKLPDPEALKEAVKAAEKVVREQPGSNLAKKALEIILRAAAALANLPDPESRKEADKAADKVRREQPGSELAVVAAIISAVARMGVKMELHPSGNEVKVVIKGLHIKQQRQLYRDVREAAKKAGVEVEIEVEGDTVTIVVRGGSHHWGSGSHHHHHH
notes: Bivalent connector
B4: binds (101B62).

B5: 317B (designed binder)
chain: GGSDVEWRFTNVSEEEQEKLARFVLQVAQLAGTQVIFTTRPGELRIRVHNLDELLALAIELYAQGLRLGDKHVQHLAKKAIEAILRGDRKLARFLLEAARAMSRATERPGSNLAKKALEEILRLAEELAKDPDPESLKAAVHCAEFVVRYQPGSNLAKKALEIILRAAEELAKLPDPEALKEAVKAAEKVVREQPGSELAKKALEIIERAAEELKKSPDPEAQKEAKKAEQKVREERPGSGGSGSHHWGSGSHHHHHH
notes: also called LHD317 B; LHD317B
B5: binds (TF10); binds (DFX); binds [1].

B6: LHD274 A64 (designed binder)
single chain, LHD274 chain A fused to DHR64: GSTTNFHLINGSEEARQLIQKAVEAISKKEGTEVHFEKSDGTLEIRVKNLHPRQEDLIKKFIEALLLALVAKGELEQAEKEGDAEVALRAVEKVVRVAELLLRLAKEAGSEEALKAALEIAEQAARLAKRVLELAEKQGDAEVALRAVELVVRVAELLLRIAKESGSEEALERALRVAEEAARLAKRVLELAEKQGDAEVARRAVELVKRVAELLERIARESGSEEAKERAERVREEARELQERVKELREREGDGSHHWGSGLNDIFEAQKIEWHEGSHHHHHH
B6: binds (LHD274 B62); binds (274B53).
